Assay results published in paper PMC2999418, “Biological Activity and Binding Site Characteristics of the PA1b Entomotoxin on Insects from Different Orders” (Journal of Insect Science, 2007).

Tested on: M. brassicae protein extracts
Assay: PA1b degradation assay with total insect protein extract
Assay type: in vitro ADME, Mamestra brassicae
Settings: 200 µg M. brassicae (L3) total protein extract, 10 µg PA1b, pH 3 to 9, 30°C, one night incubation; C18 HPLC; data not shown
Protocol: The isolation of membrane proteins for binding studies was performed as described by Gressent et al. ([2003]). For PA1b degradation tests, insect extracts were prepared as follows, 1 g of insects were ground with a mortar and pestle in liquid nitrogen. The resulting powder was resuspended in 2 ml of extraction buffer (20 mM Tris-HCl pH 8; 0.25 M sucrose; 2 mM MgCl2). The slurry was centrifuged for 2 min at 1000 g, and the supernatant was stored at -2O°C until required. All the operations were performed at 4°C.
PA1b degradation assays were performed using 10 µg of peptide (PA1b isoform mixture) in a final volume of 100 µl buffer. […]
For all assays, after a one night incubation, 150 µl of methanol were added to the mixture and incubated for 60 min at 4°C. […] PA1b peptide isoforms were detected by their absorbance at 210 nm, quantified by the measurement of the peak area and with reference to known quantities of pure peptide isoform used as standards.

For “ASCNGVCSPFEMPPCGTSACRCIPVGLVIGYCR NPSG (bicyclic or more) [PA1b, plant peptide of 37 amino acids purified from pea (Pisum sativum) seeds; entomotoxic cystine-knot peptide with three disulfide bonds]”, the “recovered PA1b after incubation with insect proteins versus heat-denatured control” value was “without any difference between control and test assays”.
